Results taken from patent US20250213686A1, “COMPOSITIONS AND METHODS FOR ENGINEERING TREG CELLS FOR TREATMENT OF DIABETES” (Seattle Children's Hospital (dba Seattle Children's …, priority 2021, published 2025).

Experiments:
Format in all cases: cell-based, human
[1] = system: cognate peptide (IGRP305-324, IGRP241-260, PPI76-90) and APC; assay: Peptide dose response (functional avidity) of TCR-transduced CD4+ T cells; conditions: for IGRP305-324 peptide concentration at which proliferation was reached: T1D5-1: similar to about 70% proliferation, T1D2: proliferation only at this concentration
Description: FIG. 39A depicts a graph showing peptide dose response of T cells expressing T1D2, T1D4, or PPI76 TCR. CD4+ T cells transduced with T1D2, T1D4, or PPI76 TCR were co-cultured with APC in the presence of various concentration of their cognate peptide, IGRP305-324, IGRP241-260, PPI76-90, respectively for 4 days. Representative of three independent experiments.
FIG. 39C depicts a graph showing peptide dose response of T cells expressing T1D2, T1D5-1, or T1D5-2 TCR. CD4+ T cells transduced with T1D2, T1D5-1 or T1D5-2 TCR were co-cultured with APC in the presence of various concentration of their cognate peptide, IGRP305-324 for 4 days. Representative of three independent experiments. For dose response of T cells in A and C, T cells were labeled with CTV before the co-culture and cell proliferation was measured by CTV dilution.
Therefore, these unique features were used as way to begin to explore the impact of TCR affinity on islet-specific EngTregs function. […] We measured proliferation of polyclonal islet-specific Teff in the presence of islet-specific peptides and mDC and EngTregs with T1D2, T1D4 or PPI76. The data were normalized by suppressive activity obtained from suppression assay set up in parallel using CD3/CD28 beads (FIG. 39G). This latter assay provided a baseline control for EngTreg function, as this activation method is not impacted by TCR avidity. […] We then compared T1D2, T1D5-1 and T1D5-2, each of which recognize the same cognate peptide, IGRP305-324, in the context of HLA-DR0401 (Table E6-1) (31). […] Similarly, we measured suppressive capacity of EngTregs expressing T1D2, T1D5-1, or T1D5-2 on proliferation of polyclonal islet Teff in response to islet-specific peptides.

[2] = system: IGRP 305-324 or IGRP 241-260 peptide presented by HLA-DR4-expressing K562 cells; assay: Activation marker response of TCR-transduced CD4+ T cells to cognate peptide; conditions: for upregulation of functional markers CD154, CD69 and CD137: stimulation with cognate peptide overnight, day 8; for cognate peptide concentration required for maximal surface marker expression: relative to cells expressing T1D5-1
Description: (§1) FIGS. 29A-29E show editing of CD4+ T cells to express one of a panel of TCRs, and phenotypic characterization of edited cells.
FIGS. 30A-30B show dose response of T1D TCR-expressing CD4+ T cells to stimulation with IGRP 305-324 peptide. Cells were cultured in the presence of HLA-DR4-expressing K562 cells for a 20 hours, and analyzed by flow cytometry. […] Dashed lines=50% maximum response of each cell population (by donor).
CD4+ cells were thawed and stimulated with anti-CD3/CD28 Dynabeads in vitro (day 0). On day 1 post-thawing, cells were inoculated with a lentivirus encoding a T1D2, T1D5-1, or T1D4 TCR (day 1). On day 3 post-thaw, Dynabeads were removed. In parallel, artificial antigen-presenting cells were generated by transducing K562 cells with a lentivirus encoding an HLA-DR4 capable of presenting IGRP 305-324 or IGRP 241-260. On day 7 post-thaw, transduced CD4+ T cells were stimulated by addition of a given amount of cognate IGRP peptide in the presence of transduced K562 cells and culture overnight. On day 8 post-thaw, expression of activation-associated markers CD69, CD137, and CD154 (FIG. 29B).
In another experiment, CD4+ T cells transduced with a lentivirus encoding T1D2 TCR or control TCR (ZNT266) were cultured in a 3:1 ratio with K562 cells pulsed with IGRP 305-324 peptide at a range of concentrations, as described in the preceding paragraph. After 20 hours of co-culture, expression of surface markers CD154 and CD137 were analyzed by flow cytometry, to quantify sensitivity of T1D2 TCR-expressing cells to cognate peptide IGRP 305-324.

[3] = system: IGRP 305-324 or IGRP 241-260 peptide presented by HLA-DR4-expressing K562 cells; assay: Cytokine production of TCR-transduced CD4+ T cells to cognate peptide; conditions: 5 hours stimulation with cognate peptide, day 14
Description: as §1
On day 14, transduced CD4+ T cells were stimulated for 5 hours with cognate IGRP peptide in the presence of transduced K562 cells, and the production of cytokines IFN-γ and TNF-α to evaluate T cell activation (FIG. 29D).

[4] = system: T1D2 TCR-expressing CD4+ T cells; assay: Alanine-substituted and potential off-target peptide stimulation of T1D2 TCR cells
Description: FIGS. 31A-31D show tolerance of T1D2 to substitutions in IGRP 305-324 peptide. FIGS. 31A and 31B show activation of T1D2 TCR-expressing CD4+ T cells, as measured by CD154 expression intensity (FIG. 31A) or % CD137-expressing cells (FIG. 31B) in the presence of antigen-presenting cells pulsed with one of a panel of alanine-substituted peptides. T cells were cultured for 20 hours in the presence of HLA-DR4-expressing K562 cells that had been pulsed with IGRP 305-324 peptide, or one of a panel of peptides having an alanine substitution at different positions, and analyzed by flow cytometry. FIGS. 31C and 31D show activation of T1D2 TCR-expressing CD4+ T cells, as measured by CD154 expression intensity (FIG. 31C) or % CD137-expressing cells (FIG. 31D) in the presence of antigen-presenting cells pulsed with one of a panel of potential off-target peptides derived from pathogens of human relevance. “Control” indicates CD4+ T cells expressing ZNT266 TCR. […]
After 20 hours of co-culture, expression of surface markers CD154 and CD137 (among CD3+CD4+ cells) were analyzed by flow cytometry, to quantify the potential for off-target activation of cells expressing T1D2 TCR. […]

[5] = IGRP 305-324, 20 hours co-culture, 3:1 with K562 cells

| Molecule | IGRP305-324 peptide concentration at which proliferation was reached [1] | upregulation of functional markers CD154, CD69 and CD137 [2] | IFN-γ and TNF-α production [3] | recognition of predicted potential off-target peptides derived from human pathogens [4] | functional avidity ([1]; comparison of T1D2, T1D4 and PPI76 TCR) | functional avidity ([1]; comparison of T1D2, T1D5-1 and T1D5-2 (same cognate peptide IGRP305-324)) | EC50 of % CD137-expressing cells [2, 5] | EC50 of CD154 expression [2, 5] | sensitivity to stimulation with cognate peptide IGRP 305-324 ([2]; compared to cells expressing ZNT266 TCR) | cognate peptide concentration required for maximal surface marker expression [2] | cognate peptide concentration giving similar (more than 20%) proliferation [1] |
| --- | --- | --- | --- | --- | --- | --- | --- | --- | --- | --- | --- |
| T1D5-1 TCR: TCR specific to IGRP 305-324; TCRα SEQ ID NO: 29, TCRβ SEQ ID NO: 30 (protein) alpha: MLLITSMLVLWMQLSQVNGQQVMQIPQYQHVQEGEDFTTYCNSSTTLSNIQWYKQRPGGHPVFLIQLVKSGEVKKQKRLTFQFGEAKKNSSLHITATQTTDVGTYFCAGQTGANNLFFGTGTRLTVIPYIQNPDPAVYQLRDSKSSDKSVCLFTDFDSQTNVSQSKDSDVYITDKTVLDMRSMDFKSNSAVAWSNKSDFACANAFNNSIIPEDTFFPSPGKGSFGAFAGCFLASGMARFCPELWSMMSKTPLIGGLG beta: MGCRLLCCAVLCLLGAVPMETGVTQTPRHLVMGMTNKKSLKCEQHLGHNAMYWYKQSAKKPLELMFVYSLEERVENNSVPSRFSPECPNSSHLFLHLHTLQPEDSALYLCASSQEVGTVPNQPQHFGDGTRLSILEDLNKVFPPEVAVFEPSEAEISHTQKATLVCLATGFFPDHVELSWWVNGKEVHSGVSTDPQPLKEQPALNDSRYCLSSRLRVSATFWQNPRNHFRCQVQFYGLSENDEWTQDRAKPVTQIVSAEAWGRADCGFTSVSYQQGVLSATILYEILLGKATLYAVLVSALVLMAMVKRKDF | 1.0 µg/mL | dose-dependent manner | dose-dependent manner | – | – | – | – | – | – | – | – |
| T1D2 TCR: TCR specific to IGRP 305-324, HLA-DR0401 restricted; TCRα SEQ ID NO: 9, TCRβ SEQ ID NO: 10 (protein) alpha: MAMLLGASVLILWLQPDWVNSQQKNDDQQVKQNSPSLSVQEGRISILNCDYTNSMFDYFLWYKKYPAEGPTFLISISSIKDKNEDGRFTVFLNKSAKHLSLHIVPSQPGDSAVYFCAATRTSGTYKYIFGTGTRLKVLANIQNPDPAVYQLRDSKSSDKSVCLFTDFDSQTNVSQSKDSDVYITDKTVLDMRSMDFKSNSAVAWSNKSDFACANAFNNSIIPEDTFFPSPGKGSFGAFAGCFLASGMARFCPELWSMMSKTPLIGGLG beta: MSISLLCCAAFPLLWAGPVNAGVTQTPKFRILKIGQSMTLQCTQDMNHNYMYWYRQDPGMGLKLIYYSVGAGITDKGEVPNGYNVSRSTTEDFPLRLELAAPSQTSVYFCASSPWGAGGTDTQYFGPGTRLTVLEDLKNVFPPEVAVFEPSEAEISHTQKATLVCLATGFYPDHVELSWWVNGKEVHSGVSTDPQPLKEQPALNDSRYCLSSRLRVSATFWQNPRNHFRCQVQFYGLSENDEWTQDRAKPVTQIVSAEAWGRADCGFTSESYQQGVLSATILYEILLGKATLYAVLVSALVLMAMVKRKDSRG | 3 µg/mL | dose-dependent manner | dose-dependent manner | does not recognize any | lowest functional avidity among the three TCRs | lowest functional avidity | 0.03 to 0.1 µg/mL | 0.1 to 0.3 µg/mL | substantially more sensitive | Lower concentrations of cognate peptide were required | – |
| T1D4 TCR: TCR specific to IGRP 241-260; TCRα SEQ ID NO: 19, TCRβ SEQ ID NO: 20 (protein) alpha: MKSLRVLLVILWLQLSWVWSQKDQVFQPSTVASSEGAVVEIFCNHSVSNAYNFFWYLHFPGCAPRLLVKGSKPSQQGRYNMTYERFSSSLLILQVREADAAVYYCAVEDLNQAGTALIFGKGTTLSVSSNIQNPDPAVYQLRDSKSSDKSVCLFTDFDSQTNVSQSKDSDVYITDKTVLDMRSMDFKSNSAVAWSNKSDFACANAFNNSIIPEDTFFPSPGKGSFGAFAGCFLASGMARFCPELWSMMSKTPLIGGLG beta: MGSRLLCWVLLCLLGAGPVKAGVTQTPRYLIKTRGQQVTLSCSPISGHRSVSWYQQTPGQGLQFLFEYFSETQRNKGNFPGRFSGRQFSNSRSEMNVSTLELGDSALYLCASSLALGQGNQQFFGPGTRLTVLEDLKNVFPPEVAVFEPSEAEISHTQKATLVCLATGFYPDHVELSWWVNGKEVHSGVSTDPQPLKEQPALNDSRYCLSSRLRVSATFWQNPRNHFRCQVQFYGLSENDEWTQDRAKPVTQIVSAEAWGRADCGFTSESYQQGVLSATILYEILLGKATLYAVLVSALVLMAMVKRKDSRG | – | dose-dependent manner | dose-dependent manner | – | – | – | – | – | – | Lower concentrations of cognate peptide were required | 0.1 µg/mL |
